Data set [1] deals with HeLa Kyoto. Put plainly: solubility in G1/S (NP-40 vs SDS abundance) (log2 ratio); higher = more soluble. As to conditions: cell cycle stage: G1/S.
Data set [2] relates to HeLa Kyoto. Kind of data set: melting temperature (median over replicates), in situ; higher = more thermally stable.
Data set [3] relates to HeLa Kyoto. Put plainly: solubility change mitosis vs G1/S (difference of NP-40 vs SDS log2 ratios) (log2 ratio difference); higher = more soluble in mitosis.
Data set [4] relates to HeLa Kyoto. Put plainly: thermal stability score vs G1/S (z-score of summed log2 fold changes over temperatures); higher = more thermally stable than in G1/S.
Setting [5] is: cell cycle stage: early G1 (4.5 h after nocodazole release).
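Wherever melting temperature (median over replicates), in situ is given: HeLa Kyoto cells synchronized by double thymidine or nocodazole block, proteins quantified by TMT10plex mass spectrometry, three independent biological replicates.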
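Wherever solubility change mitosis vs G1/S (difference of NP-40 vs SDS log2 ratios) is given: synchronized HeLa Kyoto cells (double thymidine block for G1/S, nocodazole release for mitosis), protein amounts in NP-40 versus SDS lysates quantified by mass spectrometry, three biological replicates.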
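Wherever solubility in G1/S (NP-40 vs SDS abundance) is given: HeLa Kyoto cells arrested at G1/S by double thymidine block, proteins quantified by TMT10plex mass spectrometry in mild NP-40 versus SDS extracts, three biological replicates.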
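Wherever thermal stability score vs G1/S (z-score of summed log2 fold changes over temperatures) is given: synchronized HeLa Kyoto cells, proteins quantified by TMT10plex mass spectrometry, three biological replicates, mitosis taken 0.5 h after nocodazole release, G1/S directly after double thymidine block.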

For “MTELQSALLLRRQLAELNKNPVEGFSAGLIDDNDLYRWEVLIIGPPDTLYEGGVFKAHLTFPKDYPLRPPKMKFITEIWHPNVDKNGDVCISILHEPGEDKYGYEKPEERWLPIHTVETIMISVISMLADPNGDSPANVDAAKEWREDRNGEFKRKVARCVRKSQETAFE [UBE2G1]”, in the data set on HeLa Kyoto [1], the “solubility in G1/S (log2)” value came out at 0.543. Further, the values for the melting temperature in the data set with HeLa Kyoto [2] (cell cycle stage: G1/S) and with HeLa Kyoto [2] (cell cycle stage: mitosis) were 51.7 °C and 53 °C, respectively. In addition, the “solubility change mitosis (log2)” value with HeLa Kyoto [3] was found to be 0.0506. Also, the results for the thermal stability score in the data set on HeLa Kyoto [4] (setting [5]) and in the data set on HeLa Kyoto [4] (cell cycle stage: mitosis) were -0.274 and 0.392, respectively.

With “MDALQLANSAFAVDLFKQLCEKEPLGNVLFSPICLSTSLSLAQVGAKGDTANEIGQVLHFENVKDVPFGFQTVTSDVNKLSSFYSLKLIKRLYVDKSLNLSTEFISSTKRPYAKELETVDFKDKLEETKGQINNSIKDLTDGHFENILADNSVNDQTKILVVNAAYFVGKWMKKFSESETKECPFRVNKTDTKPVQMMNMEATFCMGNIDSINCKIIELPFQNKHLSMFILLPKDVEDESTGLEKIEKQLNSESLSQWTNPSTMANAKVKLSIPKFKVEKMIDPKACLENLGLKHIFSEDTSDFSGMSETKGVALSNVIHKVCLEITEDGGDSIEVPGARILQHKDELNADHPFIYIIRHNKTRNIIFFGKFCSP [SERPINB5]”, the “solubility in G1/S (log2)” value with HeLa Kyoto [1] was 0.403. Moreover, the results for the melting temperature in the data set with HeLa Kyoto [2] (cell cycle stage: G1/S) and in the data set on HeLa Kyoto [2] (cell cycle stage: mitosis) were 52.3 °C and 52.6 °C, respectively. The “solubility change mitosis (log2)” value with HeLa Kyoto [3] is -0.146. For the same sequence, the thermal stability score with HeLa Kyoto [4] (setting [5]) is 1.51; in the data set with HeLa Kyoto [4] (cell cycle stage: mitosis), 0.174.

As for “MPHFTVVPVDGPRRGDYDNLEGLSWVDYGERAELDDSDGHGNHRESSPFLSPLEASRGIDYYDRNLALFEEELDIRPKVSSLLGKLVSYTNLTQGAKEHEEAESGEGTRRRAAEAPSMGTLMGVYLPCLQNIFGVILFLRLTWMVGTAGVLQALLIVLICCCCTLLTAISMSAIATNGVVPAGGSYFMISRSLGPEFGGAVGLCFYLGTTFAAAMYILGAIEILLTYIAPPAAIFYPSGAHDTSNATLNNMRVYGTIFLTFMTLVVFVGVKYVNKFASLFLACVIISILSIYAGGIKSIFDPPVFPVCMLGNRTLSRDQFDICAKTAVVDNETVATQLWSFFCHSPNLTTDSCDPYFMLNNVTEIPGIPGAAAGVLQENLWSAYLEKGDIVEKHGLPSADAPSLKESLPLYVVADIATSFTVLVGIFFPSVTGIMAGSNRSGDLRDAQKSIPVGTILAIITTSLVYFSSVVLFGACIEGVVLRDKYGDGVSRNLVVGTLAWPSPWVIVIGSFFSTCGAGLQSLTGAPRLLQAIAKDNIIPFLRVFGHGKVNGEPTWALLLTALIAELGILIASLDMVAPILSMFFLMCYLFVNLACAVQTLLRTPNWRPRFKYYHWALSFLGMSLCLALMFVSSWYYALVAMLIAGMIYKYIEYQGAEKEWGDGIRGLSLSAARYALLRLEEGPPHTKNWRPQLLVLLKLDEDLHVKYPRLLTFASQLKAGKGLTIVGSVIQGSFLESYGEAQAAEQTIKNMMEIEKVKGFCQVVVASKVREGLAHLIQSCGLGGMRHNSVVLGWPYGWRQSEDPRAWKTFIDTVRCTTAAHLALLVPKNIAFYPSNHERYLEGHIDVWWIVHDGGMLMLLPFLLRQHKVWRKCRMRIFTVAQMDDNSIQMKKDLAVFLYHLRLEAEVEVVEMHNSDISAYTYERTLMMEQRSQMLRQMRLTKTEREREAQLVKDRHSALRLESLYSDEEDESAVGADKIQMTWTRDKYMTETWDPSHAPDNFRELVHIKPDQSNVRRMHTAVKLNEVIVTRSHDARLVLLNMPGPPRNSEGDENYMEFLEVLTEGLERVLLVRGGGREVITIYS [SLC12A4]”, the “solubility in G1/S (log2)” value with HeLa Kyoto [1] amounted to 0.0648. In addition, the melting temperature in the data set on HeLa Kyoto [2] (cell cycle stage: G1/S) turned out to be 54.3 °C; in the data set with HeLa Kyoto [2] (cell cycle stage: mitosis) it was 54.2 °C. The “solubility change mitosis (log2)” value in the data set on HeLa Kyoto [3] was -0.148. Besides, the figures for the thermal stability score in the data set with HeLa Kyoto [4] (setting [5]) and in the data set on HeLa Kyoto [4] (cell cycle stage: mitosis) were 0.505 and 0.0338, respectively.

For “MPLFATNPFDQDVEKATSEMNTAEDWGLILDICDKVGQSRTGPKDCLRSIMRRVNHKDPHVAMQALTLLGACVSNCGKIFHLEVCSRDFASEVSNVLNKGHPKVCEKLKALMVEWTDEFKNDPQLSLISAMIKNLKEQGVTFPAIGSQAAEQAKASPALVAKDPGTVANKKEEEDLAKAIELSLKEQRQQSTTLSTLYPSTSSLLTNHQHEGRKVRAIYDFEAAEDNELTFKAGEIITVLDDSDPNWWKGETHQGIGLFPSNFVTADLTAEPEMIKTEKKTVQFSDDVQVETIEPEPEPAFIDEDKMDQLLQMLQSTDPSDDQPDLPELLHLEAMCHQMGPLIDEKLEDIDRKHSELSELNVKVMEALSLYTKLMNEDPMYSMYAKLQNQPYYMQSSGVSGSQVYAGPPPSGAYLVAGNAQMSHLQSYSLPPEQLSSLSQAVVPPSANPALPSQQTQAAYPNTMVSSVQGNTYPSQAPVYSPPPAATAAAATADVTLYQNAGPNMPQVPNYNLTSSTLPQPGGSQQPPQPQQPYSQKALL [STAM]”, the “solubility in G1/S (log2)” value in the data set on HeLa Kyoto [1] turned out to be 0.292. The melting temperature in the data set with HeLa Kyoto [2] (cell cycle stage: G1/S) worked out at 50.3 °C; in the data set with HeLa Kyoto [2] (cell cycle stage: mitosis), 52 °C. The “solubility change mitosis (log2)” value in the data set on HeLa Kyoto [3] is -0.163. Moreover, the thermal stability score stood at 0.119 with HeLa Kyoto [4] (setting [5]) and 0.654 with HeLa Kyoto [4] (cell cycle stage: mitosis).

As for “MELEDGVVYQEEPGGSGAVMSERVSGLAGSIYREFERLIGRYDEEVVKELMPLVVAVLENLDSVFAQDQEHQVELELLRDDNEQLITQYEREKALRKHAEEKFIEFEDSQEQEKKDLQTRVESLESQTRQLELKAKNYADQISRLEEREAELKKEYNALHQRHTEMIHNYMEHLERTKLHQLSGSDQLESTAHSRIRKERPISLGIFPLPAGDGLLTPDAQKGGETPGSEQWKFQELSQPRSHTSLKVSNSPEPQKAVEQEDELSDVSQGGSKATTPASTANSDVATIPTDTPLKEENEGFVKVTDAPNKSEISKHIEVQVAQETRNVSTGSAENEEKSEVQAIIESTPELDMDKDLSGYKGSSTPTKGIENKAFDRNTESLFEELSSAGSGLIGDVDEGADLLGMGREVENLILENTQLLETKNALNIVKNDLIAKVDELTCEKDVLQGELEAVKQAKLKLEEKNRELEEELRKARAEAEDARQKAKDDDDSDIPTAQRKRFTRVEMARVLMERNQYKERLMELQEAVRWTEMIRASRENPAMQEKKRSSIWQFFSRLFSSSSNTTKKPEPPVNLKYNAPTSHVTPSVKKRSSTLSQLPGDKSKAFDFLSEETEASLASRREQKREQYRQVKAHVQKEDGRVQAFGWSLPQKYKQVTNGQGENKMKNLPVPVYLRPLDEKDTSMKLWCAVGVNLSGGKTRDGGSVVGASVFYKDVAGLDTEGSKQRSASQSSLDKLDQELKEQQKELKNQEELSSLVWICTSTHSATKVLIIDAVQPGNILDSFTVCNSHVLCIASVPGARETDYPAGEDLSESGQVDKASLCGSMTSNSSAETDSLLGGITVVGCSAEGVTGAATSPSTNGASPVMDKPPEMEAENSEVDENVPTAEEATEATEGNAGSAEDTVDISQTGVYTEHVFTDPLGVQIPEDLSPVYQSSNDSDAYKDQISVLPNEQDLVREEAQKMSSLLPTMWLGAQNGCLYVHSSVAQWRKCLHSIKLKDSILSIVHVKGIVLVALADGTLAIFHRGVDGQWDLSNYHLLDLGRPHHSIRCMTVVHDKVWCGYRNKIYVVQPKAMKIEKSFDAHPRKESQVRQLAWVGDGVWVSIRLDSTLRLYHAHTYQHLQDVDIEPYVSKMLGTGKLGFSFVRITALMVSCNRLWVGTGNGVIISIPLTETNKTSGVPGNRPGSVIRVYGDENSDKVTPGTFIPYCSMAHAQLCFHGHRDAVKFFVAVPGQVISPQSSSSGTDLTGDKAGPSAQEPGSQTPLKSMLVISGGEGYIDFRMGDEGGESELLGEDLPLEPSVTKAERSHLIVWQVMYGNE [SPAG9]”, in the data set with HeLa Kyoto [1], the “solubility in G1/S (log2)” value was determined as 0.00549. Moreover, the results for the melting temperature in the data set with HeLa Kyoto [2] (cell cycle stage: G1/S) and in the data set on HeLa Kyoto [2] (cell cycle stage: mitosis) were 51.3 °C and 50.6 °C, respectively. In the data set on HeLa Kyoto [3], the “solubility change mitosis (log2)” value was -0.168. Besides, the values for the thermal stability score with HeLa Kyoto [4] (setting [5]) and in the data set with HeLa Kyoto [4] (cell cycle stage: mitosis) were 0.672 and 0.413, respectively.

Take “MANINLKEITLIVGVVTACYWNSLFCGFVFDDVSAILDNKDLHPSTPLKTLFQNDFWGTPMSEERSHKSYRPLTVLTFRLNYLLSELKPMSYHLLNMIFHAVVSVIFLKVCKLFLDNKSSVIASLLFAVHPIHTEAVTGVVGRAELLSSIFFLAAFLSYTRSKGPDNSIIWTPIALTVFLVAVATLCKEQGITVVGICCVYEVFIAQGYTLPLLCTTAGQFLRGKGSIPFSMLQTLVKLIVLMFSTLLLVVIRVQVIQSQLPVFTRFDNPAAVSPTPTRQLTFNYLLPVNAWLLLNPSELCCDWTMGTIPLIESLLDIRNLATFTFFCFLGMLGVFSIRYSGDSSKTVLMALCLMALPFIPASNLFFPVGFVVAERVLYVPSMGFCILVAHGWQKISTKSVFKKLSWICLSMVILTHSLKTFHRNWDWESEYTLFMSALKVNKNNAKLWNNVGHALENEKNFERALKYFLQATHVQPDDIGAHMNVGRTYKNLNRTKEAEESYMMAKSLMPQIIPGKKYAARIAPNHLNVYINLANLIRANESRLEEADQLYRQAISMRPDFKQAYISRGELLLKMNKPLKAKEAYLKALELDRNNADLWYNLAIVHIELKEPNEALKKNFNRALELNPKHKLALFNSAIVMQESGEVKLRPEARKRLLSYINEEPLDANGYFNLGMLAMDDKKDNEAEIWMKKAIKLQADFRSALFNLALLYSQTAKELKALPILEELLRYYPDHIKGLILKGDILMNQKKDILGAKKCFERILEMDPSNVQGKHNLCVVYFEEKDLLKAERCLLETLALAPHEEYIQRHLNIVRDKISSSSFIEPIFPTSKISSVEGKKIPTESVKEIRGESRQTQIVKTSDNKSQSKSNKQLGKNGDEETPHKTTKDIKEIEKKRVAALKRLEEIERILNGE [TMTC3]”: the “solubility in G1/S (log2)” value in the data set with HeLa Kyoto [1] was -0.0354. The melting temperature turned out to be 52.9 °C with HeLa Kyoto [2] (cell cycle stage: G1/S) and 53.1 °C in the data set on HeLa Kyoto [2] (cell cycle stage: mitosis). Also, the “solubility change mitosis (log2)” value in the data set on HeLa Kyoto [3] is -0.0802. The thermal stability score stood at 0.0389 in the data set on HeLa Kyoto [4] (setting [5]) and 0.555 with HeLa Kyoto [4] (cell cycle stage: mitosis).

These data come from the supplement of paper PMC5998384.
